Measurements reported in patent US10253076B2, “Peptides and combination of peptides for use in immunotherapy against ovarian cancer and other cancers” (immatics biotechnologies GmbH, priority 2015, dated 2019).

Assays:
[1] = biological target: HLA-A*02:01 (Homo sapiens, UniProt P04439, D140Y/D185E/D98H/E176V/E277Q/G131W/G231S/I119V/I121R/I166T/I218V/L300P/L318F/N151K/N90K/P208A/P217A/Q86G/Q94H/R138H/R169H/T345S); experiment: MHC binding assay (UV-ligand exchange, beta2m ELISA, peptide exchange yield); settings: binding of HLA-class I restricted peptides to HLA-A*02:01, ranged by peptide exchange yield (UV-ligand exchange, β2m ELISA)
How it was run: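 Peptide–HLA-A*02:01 complexes made by UV-mediated exchange of a photocleavable peptide with the test peptide. Exchange products diluted 100-fold on streptavidin-coated plates, 1 h at 37°C, then HRP anti-β2m 1 h at 37°C; TMB read at 450 nm to give exchange yield.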

[2] = test system: CD8+ T cells; experiment: In vitro immunogenicity: T-cell priming with aAPCs loaded with peptide/MHC and anti-CD28, pMHC multimer readout; type: cell-based, human; settings: for Wells positive [%]: HLA-A*02 restricted peptides
Procedure: In an aspect, the peptides are pre-screened for immunogenicity before being included in the warehouse. By way of example, and not limitation, the immunogenicity of the peptides included in the warehouse is determined by a method comprising in vitro T-cell priming through repeated stimulations of CD8+ T cells from healthy donors with artificial antigen presenting cells loaded with peptide/MHC complexes and anti-CD28 antibody.
In order to obtain information regarding the immunogenicity of the TUMAPs of the present invention, the inventors performed investigations using an in vitro T-cell priming assay based on repeated stimulations of CD8+ T cells with artificial antigen presenting cells (aAPCs) loaded with peptide/MHC complexes and anti-CD28 antibody.
In order to perform in vitro stimulations by artificial antigen presenting cells loaded with peptide-MHC complex (pMHC) and anti-CD28 antibody, the inventors first isolated CD8+ T cells from fresh HLA-A*02 leukapheresis products via positive selection using CD8 microbeads (Miltenyi Biotec, Bergisch-Gladbach, Germany) of healthy donors obtained from the University clinics Mannheim, Germany, after informed consent.
PBMCs and isolated CD8+ lymphocytes were incubated in T-cell medium (TCM) until use consisting of RPMI-Glutamax (Invitrogen, Karlsruhe, Germany) supplemented with 10% heat inactivated human AB serum (PAN-Biotech, Aidenbach, Germany), 100 U/ml Penicillin/100 μg/ml Streptomycin (Cambrex, Cologne, Germany), 1 mM sodium pyruvate (CC Pro, Oberdorla, Germany), 20 μg/ml Gentamycin (Cambrex). 2.5 ng/ml IL-7 (PromoCell, Heidelberg, Germany) and 10 U/ml IL-2 (Novartis Pharma, Nürnberg, Germany) were also added to the TCM at this step.
Generation of pMHC/anti-CD28 coated beads, T-cell stimulations and readout was performed in a highly defined in vitro system using four different pMHC molecules per stimulation condition and 8 different pMHC molecules per readout condition.
The purified co-stimulatory mouse IgG2a anti human CD28 Ab 9.3 (Jung et al., 1987) was chemically biotinylated using Sulfo-N-hydroxysuccinimidobiotin as recommended by the manufacturer (Perbio, Bonn, Germany). Beads used were 5.6 μm diameter streptavidin coated polystyrene particles (Bangs Laboratories, Illinois, USA).
pMHC used for positive and negative control stimulations were A*0201/MLA-001 (peptide […] (SEQ ID NO. 664) from modified Melan-A/MART-1) and A*0201/DDX5-001 ([…] from DDX5, SEQ ID NO. 665), respectively.
800.000 beads/200 μl were coated in 96-well plates in the presence of 4×12.5 ng different biotin-pMHC, washed and 600 ng biotin anti-CD28 were added subsequently in a volume of 200 μl. Stimulations were initiated in 96-well plates by co-incubating […] CD8+ T cells with 2×10^5 washed coated beads in 200 μl TCM supplemented with 5 ng/ml IL-12 (PromoCell) for 3 days at 37° C. Half of the medium was then exchanged by fresh TCM supplemented with 80 U/ml IL-2 and incubating was continued for 4 days at 37° C. This stimulation cycle was performed for a total of three times. For the pMHC multimer readout using 8 different pMHC molecules per condition, a two-dimensional combinatorial coding approach was used as previously described (Andersen et al., 2012) with minor modifications encompassing coupling to 5 different fluorochromes. Finally, multimeric analyses were performed by staining the cells with Live/dead near IR dye (Invitrogen, Karlsruhe, Germany), CD8-FITC antibody clone SK1 (BD, Heidelberg, Germany) and fluorescent pMHC multimers. For analysis, a BD LSRII SORP cytometer equipped with appropriate lasers and filters was used. Peptide specific cells were calculated as percentage of total CD8+ cells. Evaluation of multimeric analysis was done using the FlowJo software (Tree Star, Oregon, USA). In vitro priming of specific multimer+ CD8+ lymphocytes was detected by comparing to negative control stimulations. […]

In the case of “199 (ALQDVPLSSV; listed as Homo sapiens) [compound 199]”, the Peptide exchange [1] is reported as “″+++″ (≥50% = +++)” and the “Wells positive [%]” value [2] is reported as “″+″ (<20% = +)”.
In the case of “247 (VLLPNDLLEKV; listed as Homo sapiens) [compound 247]”, the Peptide exchange [1] is reported as “″+++″ (≥50% = +++)” and the “Wells positive [%]” value [2] is reported as “″+″ (<20% = +)”.
With “283 (ALYIGDGYVIHLA; listed as Homo sapiens) [compound 283]” the Peptide exchange [1] was “″+++″ (≥50% = +++)” and the wells ([2]; HLA class I peptides, percentage of positive wells) was “+ (<20% = +)”.
For “319 (SLEPQIQPV; listed as Homo sapiens) [compound 319]”, the Peptide exchange [1] was “″++″ (≥20% = ++)” and the “Wells positive [%]” value [2] was “″+″ (<20% = +)”.
With “384 (ILFANPNIFV; listed as Homo sapiens) [compound 384]” the Peptide exchange [1] was “″+++″ (≥50% = +++)” and the “Wells positive [%]” value [2] was “″+″ (<20% = +)”.
For “443 (GLWEIENNPTV; listed as Homo sapiens) [compound 443]”, the Peptide exchange [1] was “″+++″ (≥50% = +++)” and the “Wells positive [%]” value [2] was “″+″ (<20% = +)”.
“460 (AMLEKNYKL; listed as Homo sapiens) [compound 460]” was tested, and the Peptide exchange [1] was “″++++″ (≥75% = ++++)” and the “Wells positive [%]” value [2] was “″+″ (<20% = +)”.
For “489 (KMWEELPEVV; listed as Homo sapiens) [compound 489]”, the Peptide exchange [1] was “″+++″ (≥50% = +++)” and the “Wells positive [%]” value [2] was “″+″ (<20% = +)”.
With “499 (KIFDIDEAEEGV; listed as Homo sapiens) [compound 499]” the Peptide exchange [1] was “″++″ (≥20% = ++)” and the “Wells positive [%]” value [2] was “″+″ (<20% = +)”.
“511 (FLDPYCSASV; listed as Homo sapiens) [compound 511]” was tested, and the Peptide exchange [1] was “″++″ (≥20% = ++)” and the “Wells positive [%]” value [2] was “″+″ (<20% = +)”.
In the case of “603 (FLIEPEHVNTV; listed as Homo sapiens) [compound 603]”, the Peptide exchange [1] is reported as “″++″ (≥20% = ++)” and the “Wells positive [%]” value [2] is reported as “″+″ (<20% = +)”.
